Results taken from patent US20190367631A1 (Regeneron, published 2019).

T1: human MSR1 extracellular domain expressed with a N-terminal nonahistidine tag (human, UniProt P21757 77-451)
T1 construct: extracellular domain; also called His9-hMSR1; His-hMSR1
T1 sequence: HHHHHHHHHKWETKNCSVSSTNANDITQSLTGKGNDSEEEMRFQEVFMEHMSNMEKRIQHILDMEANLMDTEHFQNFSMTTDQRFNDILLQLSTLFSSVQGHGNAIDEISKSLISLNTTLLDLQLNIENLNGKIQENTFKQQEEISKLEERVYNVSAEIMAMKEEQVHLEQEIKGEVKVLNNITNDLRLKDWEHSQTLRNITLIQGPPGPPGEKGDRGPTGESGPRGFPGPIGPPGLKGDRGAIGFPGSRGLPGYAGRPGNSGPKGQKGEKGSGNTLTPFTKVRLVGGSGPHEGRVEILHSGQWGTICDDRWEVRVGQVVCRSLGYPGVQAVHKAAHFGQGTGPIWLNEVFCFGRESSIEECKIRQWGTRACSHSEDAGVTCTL

T2: mouse MSR1 extracellular domain expressed with a N-terminal nonahistidine tag (His9-mMSR1); R&D Systems, Cat … (mouse, UniProt P30204 79-458)
T2 construct: extracellular domain; not shown: N-terminal nonahistidine tag
T2 sequence (looked up): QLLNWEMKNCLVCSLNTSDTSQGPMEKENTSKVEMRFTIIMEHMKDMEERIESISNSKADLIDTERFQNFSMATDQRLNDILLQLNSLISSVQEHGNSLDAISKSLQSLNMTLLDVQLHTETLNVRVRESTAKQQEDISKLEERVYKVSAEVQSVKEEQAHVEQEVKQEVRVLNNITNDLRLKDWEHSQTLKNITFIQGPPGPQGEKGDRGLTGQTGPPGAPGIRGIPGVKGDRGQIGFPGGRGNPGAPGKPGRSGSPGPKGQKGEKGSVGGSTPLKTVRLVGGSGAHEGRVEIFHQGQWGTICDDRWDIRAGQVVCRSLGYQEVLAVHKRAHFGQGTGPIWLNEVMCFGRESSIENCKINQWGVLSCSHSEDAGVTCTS

T3: human MSR1 extracellular domain expressed with a N-terminal nonahistidine tag (His9-hMSR1); R&D Systems, Cat … (human, UniProt P21757 77-451)
T3 construct: extracellular domain; also called His-hMSR1; 9xHis-hMSR1; not shown: N-terminal nonahistidine tag
T3 sequence (looked up): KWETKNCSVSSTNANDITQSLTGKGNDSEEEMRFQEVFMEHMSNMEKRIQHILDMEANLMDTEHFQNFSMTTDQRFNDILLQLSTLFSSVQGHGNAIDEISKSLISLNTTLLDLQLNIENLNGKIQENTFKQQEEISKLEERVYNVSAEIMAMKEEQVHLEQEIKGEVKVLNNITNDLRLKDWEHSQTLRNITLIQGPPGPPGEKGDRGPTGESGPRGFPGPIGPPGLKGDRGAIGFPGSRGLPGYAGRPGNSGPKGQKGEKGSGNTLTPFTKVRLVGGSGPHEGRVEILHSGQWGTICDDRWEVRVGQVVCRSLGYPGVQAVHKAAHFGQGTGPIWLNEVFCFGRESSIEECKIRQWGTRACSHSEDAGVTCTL

T4: monkey MSR1 extracellular domain expressed with a N-terminal hexahistidine-myc-myc tag (HMM-mfMSR1) (monkey (Macaca fascicularis))
T4 chain: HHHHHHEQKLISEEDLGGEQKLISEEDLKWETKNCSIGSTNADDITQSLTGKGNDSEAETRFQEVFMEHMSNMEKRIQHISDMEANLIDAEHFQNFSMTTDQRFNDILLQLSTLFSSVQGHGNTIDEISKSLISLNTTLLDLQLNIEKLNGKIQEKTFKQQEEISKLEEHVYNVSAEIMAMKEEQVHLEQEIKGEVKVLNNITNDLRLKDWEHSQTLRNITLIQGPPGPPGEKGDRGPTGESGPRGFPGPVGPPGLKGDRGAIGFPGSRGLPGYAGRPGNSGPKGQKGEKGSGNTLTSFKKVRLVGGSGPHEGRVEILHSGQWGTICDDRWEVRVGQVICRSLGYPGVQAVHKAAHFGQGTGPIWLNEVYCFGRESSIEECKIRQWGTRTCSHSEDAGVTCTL


Tests used:
[1] = biological target: T1, human MSR1 extracellular domain …; test: competition ELISA, plate-coated His9-hMSR1; 100 nM antibody, competitor ligand Ac-LDL
Description: (§1) Buffer alone was also added to wells on each coat. […] This assay was conducted in four different assay runs.
(§2) Data analysis was performed using a sigmoidal dose-response model within Prism™ software (GraphPad).

[2] = biological target: T1, human MSR1 extracellular domain …; test: competition ELISA, plate-coated His9-hMSR1; 1 µM antibody, competitor ligand 10 nM Ox-LDL
Description: as §1, §2

[3] = biological target: T1, human MSR1 extracellular domain …; test: competition ELISA, plate-coated His9-hMSR1; 300 nM antibody, competitor ligand biot-AGE-BSA
Description: as §1, §2

[4] = biological target: T2, mouse MSR1 extracellular domain …; test: BLI Octet, 25 C, antibody captured
[5] = biological target: T3, human MSR1 extracellular domain …; test: SPR Biacore, 25 C, antibody captured;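 further: rates from 1:1 fit with mass transport limitation of real-time sensorgrams, HEPES-buffered saline with EDTA and Tween-20 at pH 7.4, KD and t½ derived from the kinetic rates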
[6] = biological target: T4, monkey MSR1 extracellular domain …; test: SPR Biacore, 25 C, antibody captured;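 further: rates from 1:1 fit with mass transport limitation of real-time sensorgrams, HEPES-buffered saline with EDTA and Tween-20 at pH 7.4, KD and t½ derived from the kinetic rates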
[7] = biological target: T3, human MSR1 extracellular domain …; test: SPR Biacore, 37 C, antibody captured
Description: (§3) Binding affinities and kinetic constants of human anti-MSR1 antibodies for different MSR1 reagents were determined by real-time surface plasmon resonance (Biacore 4000). All binding studies were performed in 10 mM HEPES, 150 mM NaCl, 3 mM EDTA, and 0.05% v/v Surfactant Tween-20, pH 7.4 (HBS-ET) running buffer at 25° C. and 37° C.
(§4) The association rate (kₐ) and dissociation rate (kd) were determined by fitting the real-time binding sensorgrams to a 1:1 binding model with mass transport limitation using Scrubber 2.0c curve-fitting software. Binding dissociation equilibrium constant (KD) and dissociative half-life (t½) were calculated from the kinetic rates as:

[8] = biological target: T4, monkey MSR1 extracellular domain …; test: SPR Biacore, 37 C, antibody captured
Description: as §3, §4

Row | Binder | % Blocking [1] [%] | % Blocking [2] [%] | % Blocking [3] [%] | other results
1 | H1H27736P-N297Q (antibody, V domains shown, Human IgG1 Fc with N297Q) VH: EVQLVESGGGLVQPGGSLRLSCAASGFTFSSYAMSWVRQAPGKGLEWVSSISGSGDSTFYTDSVKGRFTISRDISKNTLYLQMNSLRAEDTAVYYCAKDRLLWFGDLISPFHYWGQGTLVTVSS VL: EIVLTQSPGTLSLSPGERATLSCRASQSVSNIYLAWYQQKPAQAPRLLIYGASSRATGIPDRFSVSGSGTDFTLTISRLEPEDFAVYYCQQYGSSPRTFGQGTKVEIKR | -31 | 3 | -3 | 
2 | H1H27729P-N297Q (antibody, V domains shown, Human IgG1 Fc with N297Q) VH: QVQLVESGGGLVKPGGSLRLSCAASGFIFSDYYMSWIRQAPGKGLEWVSYISSSGTTIYGDSVKGRFTMSRDNAKNSLYLQMNSLRAEDTAVYYCARNYALFDYWGQGTLVTVSS VL: DIQMTQSPSSLSASVGDRVTITCQASQDISKYLNWYQQKPGKAPKLLIYYTSNLETGVPSRFSGSGSGTDFTFTISSLQPEDIATYYCHQSDYLPFTFGPGTKVDIKR | 8 | 36 | 15 | 
3 | H1H27731P-N297Q (antibody, V domains shown, Human IgG1 Fc with N297Q) VH: QLQLQESGPGLVKPSETLSLTCTVSGGSISRISYYWGWIRQPPGKGLEWIGSIYDSGSTYYNPSLKSRVTISIDTSKNQFSLKLSSVTAADTAVYYCVRYSSSSAFAFDYWGQGTLVTVSS VL: DIQMTQSPSSVSASVGDRVTITCRASQGISSWLAWYQQKPGKAPKLLIYAASSLQSGVPSRFSGSGSGTDFTLTISSLQPEDFATYYCQQANSFPFTFGPGTKVDIKR | -41 | -1 | 4 | 
4 | H1H27747P-N297Q (antibody, V domains shown, Human IgG1 Fc with N297Q) VH: QVQLVESGGAVVQPGRSLRLSCAASGFTFSYYGMHWVRQAPGKGLEWVAVISYDGSKKYYADSVKGRFTISRDNSKNTLYLQMNSLRAEDTAVYYCAKDLTVDFYYGMDVWGQGTTVTVSS VL: DIQMTQSPSSVSASVGDRVTITCRASQGISSWLAWYQQKPGKAPKLLIYATSSLQSGAPSRFSGSGSGTDFTLTISSLQPEDFATYFCQQANSFPYTFGQGTKLEIKR | -44 | -31 | -2 | 
5 | H1H27734P-N297Q (antibody, V domains shown, Human IgG1 Fc with N297Q) VH: EVQLVESRGGLVQPGGSLRLSCAASGFTFSSYAMSWVRQAPGKGLEWVSAISGSGGSTFYADSVKGRFTISRDNSKNTVYLQMNSLRAEDTAVYYCAKALVLRFLEWLGDYWGQGTLVTVSS VL: DIQMTQSPSTLSASVGDRVTITCRASQSISSWLAWFQQKPGKAPKLLIYKASSLESGVPSRFSGSGSGTEFTLTISSLQPDDFATYYCQQYKSYWTFGQGTKVEIKR | -38 | -15 | -4 | 
6 | H1H27732P-N297Q (antibody, V domains shown, Human IgG1 Fc with N297Q) VH: QLQLQESGPGLVKPSETLSLTCTVSGGSISSSTYYWGWIRQPPGKGLEWIGSFYYSGSTYYNPSLKSRVTISVGTSKNQFSLKLSSVTAADTAVYFCARGGLLGRPFVIWGQGTMVTVSS VL: DIQMTQSPSSLSASVGDRVTITCRASQGIRNDLGWYQQKPGKAPKRLIYAASSLQSGVPSRFSGSGSGTEFTLTISSLQPEDFATYYCLQHNSYPLTFGGGTKVEIKR | -61 | -60 | -9 | 
7 | H1H27766P-N297Q (antibody, V domains shown, Human IgG1 Fc with N297Q; tied by the numerical identifier; also called H1H27766P2-N297Q; H1H27766P2) VH: EVQLVESGGGLVQPGGSLRLSCAASGFTFSSFAMSWVRQAPGKELEWVSSISGRGGSTYYADSVRGRFTISRDNSKITLYLQMNSLRAEDTAVYYCAKDIVFRYTSSAYWYFDLWGRGTLVTVSS VL: not shown |  |  |  | binding result [4]: no binding (tested: 50 nM); Kd [5]: 0.0796 nM; koff [5]: 1.86e-05 s⁻¹; kon [5]: 234000 M⁻¹ s⁻¹; t½ [5]: 10.3 h; Kd [6]: 0.506 nM; koff [6]: 7.94e-05 s⁻¹; kon [6]: 157000 M⁻¹ s⁻¹; t½ [6]: 2.42 h; Kd [7]: 0.227 nM; koff [7]: 7.72e-05 s⁻¹; kon [7]: 340000 M⁻¹ s⁻¹; t½ [7]: 2.5 h; Kd [8]: 1.72 nM; koff [8]: 0.000589 s⁻¹; kon [8]: 343000 M⁻¹ s⁻¹; t½ [8]: 0.333 h
8 | H1H27739P-N297Q (antibody, V domains shown, Human IgG1 Fc with N297Q) VH: EVQLVESGGGLVQPGGSLRLSCTASGFTFSSYAMSWVRQAPGKGLEWVSAISGTGSSTYFTDSVKGRFAISRDNSKNTLYLQMNSLRAEDTAVYYCAKDGEWLSTVTLFDYWGQGTLVTVSS VL: EIVMTQSPATLSVSPGERATLSCRASQSVSSNLAWYQQKPGQAPRLLIYGASTRATGIPARFSGSGSGTDFTLTISSLQSEDFALYYCQQYFIWPPHPTFGPGTKVDIKR | -47 | -41 | -9 | 

Continued, in another order:

Row | % Blocking [1] [%] | % Blocking [2] [%] | % Blocking [3] [%] | Binder | other results
9 | -51 | -21 | -1 | H1H27749P-N297Q (antibody, V domains shown, Human IgG1 Fc with N297Q) VH: QVQLQESGPGLVKPSETLSLTCTVSDGSISSYYWSWIRQPPGRGLEWIGFIYYSGSTSYNPSLKSRVTISVDTSMSQFSLKLRSVTAADTAVYYCARGSPFDYWGPGTLVTVSS VL: EIVLTQSPGTLSLSPGERATLSCRASQSVSSSYLAWYQQRPGQAPSLLISGASRRATGIPDRFSGSGSGTDFTLTIRRLEPEDFAMYYCQQYGSSPPTFGGGTKVEIKR | 
10 | -42 | -44 | -9 | H1H27754P-N297Q (antibody, V domains shown, Human IgG1 Fc with N297Q) VH: EVQLVESGGGLVQPGGSLRLSCAASGFTFRTYAMTWVRQAPGKGLDWVSAITGDGGNTYYADSVKGRFTISRDNSKNTLYLQMNSLRAEDTAIYYCAKDQRFSFALYYFDYWGQGTLVTVSS VL: DIQMTQSPSSVSASVGDRVTITCRASQGISSWLAWYQQKPGNAPKLLIYAAFSLQSGVPSRFSGSGSGTDFTLTISSLQPEDFATYYCQQANNFPWTFGQGTKVEIKR | 
11 |  | 2 | 1 | H1H27773P2-N297Q (antibody, human IgG1, V domains shown, Human IgG1 Fc with N297Q; also called H1H27773P-N297Q) VH: EVQLVESGGGLVQPGGSLRLSCAASGFTFSSYAMNWVRQAPGKGLEWVSAISGSGDSTYYADSVKGRFTISRDNSRTTLSLQLNSLRAEDTAVYYCAKDRLLWFGELGSPFHYWGQGTLVTVSS VL: not shown | 
12 | 52 | 54 | 27 | H1H27766P2-N297Q (antibody, V domains shown, Human IgG1 Fc with N297Q; also called H1H27766P-N297Q) VH: EVQLVESGGGLVQPGGSLRLSCAASGFTFSSFAMSWVRQAPGKELEWVSSISGRGGSTYYADSVRGRFTISRDNSKITLYLQMNSLRAEDTAVYYCAKDIVFRYTSSAYWYFDLWGRGTLVTVSS VL: not shown | 
13 | -51 | -31 | -11 | H1H27751P-N297Q (antibody, V domains shown, Human IgG1 Fc with N297Q) VH: EVQLVESGGGLVQPGGSLRLSCAASGFTFSNYAMHWVRQAPGKGLEYVSAISSNGGSTYYADSVKGRITISRDNSKNTLYLQMGSLRAEDMAVYYCARGRPYYYYFGMDVWGQGTTVTVSS VL: not shown | 
